Here are results for twelve compounds from patent EP1088233B9, “A BIOLUMINESCENCE RESONANCE ENERGY TRANSFER (BRET) SYSTEM AND ITS USE” (PerkinElmer BioSignal Inc., priority 1998, dated 1999).

Data set [1] relates to HeLa cells transfected with the apoptosis sensor. The experiment in a line: Apoptosis sensor (Rluc-caspase-EYFP) BRET assay. The data set is classed as cell-based. Conditions: staurosporine 1mM, 5 hours of apoptosis induction, 10 minutes after coelenterazine h. The text has this: A BRET apoptosis sensor was engineered by introducing a caspase-3 recognition site in the linker regionof the Rluc-EYFP fusionconstruct. Upon inductionof apoptosis, caspase-3 should recognize and cleave the linker region which should separate Rluc of EYFP and thereby decrease the BRET ratio over time.
pCEP4/Rluc-EYFP and pCEP4/Rluc-caspase-EYFP DNAs were transfected into HeLa cell using LipofectAMINE (BRL/Gibco-Life technologies) in 100mm dishes as described in the manufacturer's protocol. 24 hours post-transfection, transfected cells were harvested and distributed into 96-well microplates (white Optiplate from Packard) at a density of 30,000 cells per well. The following day, cells are induced to undergo apoptosis using staurosporine 1mM dissolved in ISCOVE media (BRL/Gibco-Life technologies) without serum and phenol red at 37°C (total volume here is […]) for 5 hours. […] of BRET buffer (PBS Ca^2+/Mg^2+ + glucose without aprotinin) and […] of coelenterazine h […] is added to start the bioluminescent reaction. Light emissions are detected using the BRETCount (read length sec for each filter, temperature 25°C). Data was collected 10 minutes after addition of coelenterazine h. The assay was done in quadruplicate.
Figure 31 gives representative BRET ratio changes in HeLa cells after 5 hours of apoptosis induction by staurosporine. […]

In data set [2] the target is EYFP•KaiA fusion protein (Aequorea victoria; Synechococcus (cyanobacterium)) (UniProt Q79PF6). Put plainly: BRET imaging of E. coli cultures through 480 and 530 nm filters, cooled-CCD camera.
Data set [3] has as its target EYFP•KaiB fusion protein (Aequorea victoria; Synechococcus (cyanobacterium)) (UniProt Q79PF5). The description is as above.
The target is the same in data set [4]. The experiment in a line: BRET luminescence spectra, co-expression in E. coli.
The target in data set [5] is Rluc-caspase-EYFP (apoptosis sensor) (Renilla reniformis; Aequorea victoria) (UniProt P27652). The experiment in a line: cell-based or functional assay.
For another data set, the target named is T1, Rluc (Renilla reniformis, UniProt P27652).
T1 sequence (P27652 1-311): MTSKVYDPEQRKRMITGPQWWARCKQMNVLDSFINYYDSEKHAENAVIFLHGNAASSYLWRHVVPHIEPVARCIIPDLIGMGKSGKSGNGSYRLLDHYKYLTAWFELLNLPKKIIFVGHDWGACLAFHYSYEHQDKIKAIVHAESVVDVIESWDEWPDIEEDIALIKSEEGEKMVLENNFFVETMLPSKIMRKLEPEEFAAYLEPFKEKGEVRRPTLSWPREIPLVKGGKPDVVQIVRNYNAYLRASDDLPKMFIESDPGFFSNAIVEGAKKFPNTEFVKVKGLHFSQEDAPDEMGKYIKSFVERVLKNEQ
Put plainly: Rluc luminescence with coelenterazine derivatives in cells transfected with pRluc-CMV (LumiCount). Conditions: for Normalized RLU: derivatives, 4 minutes after addition; for half-life of the reaction (Rluc luminescence): coelenterazine f 1 mM. The arrangement: Normalized RLU: dose or concentration left out as unconfirmed.

Data set [6] addresses EGF receptors expressed endogenously by GH4-C1 cells. Put plainly: cell-based or functional assay.
For data set [7], the target named is enhanced yellow fluorescent protein (EYFP) (Aequorea victoria). Put plainly: BRET in co-transfected cells, LumiCount, black microplate, 200 ul, 5 uM coelenterazine, 50,000 cells per well.
The target is the same in data set [8]. The experiment in a line: BRET in co-transfected cells, LumiCount, white microplate, 100 ul, 5 uM coelenterazine, 50,000 cells per well.
For data set [9] the target is unchanged. Put plainly: BRET in co-transfected cells, LumiCount, white microplate, 200 ul, 5 uM coelenterazine, 50,000 cells per well.
For data set [10], the target named is calcitonin receptor expressed endogenously by CHO-K1 cells. Put plainly: cell-based or functional assay.
Data set [11] can be described thus: Effect of DTT on BRET ratio in stable cell lines expressing Rluc or Rluc::EYFP (BRETCount). The data set is classed as cell-based. Conditions: DTT 10mM in PBS+Ca2+/Mg2++glucose. As to the method: PBS=PBS+Ca^2+/Mg^2++glucose. DTT 10mM. […] PBS=PBS+Ca^2+/Mg^2++glucose DTT 10mM.
In PBS (Ca ^2+/Mg^2++glucose) alone, BRET ratios are lower than in presence of DTT. When DTT is added, ratios increase by almost 0.1 BRET unit.

Data set [12] in a line: Cell viability by trypan blue dye in BRET assay media. Conditions: hamster, cho cells. Format: cell-based. Here is the method: The effect of the type of media on the luminescence of the Rluc was assayed in absence or in the presence of various amount of DTT. Transfected CHO cells were collected and redistributed in 96 well plate using different media conditions (Figures 24-26). Luminescence timecourses at 470nm (TopCount) were performed at 25°C upon coelenterazine addition. The effects of three different media were assayed: PBS Ca^2+/Mg^2+ (Figure 24), PBS Ca^2+/Mg^2+ + glucose (Figure 25) and DMEM without phenol red (Figure 26).
Similar results were found in presence of 100mM DTT: PBS alone gave higher long term counts. As expected, increasing the concentration of DTT improved Rluc stability in all three media. Unfortunately, high amounts of DTT (50 and 100mM) which gave the best stability, damaged the cells: viability was assayed using trypan blue dye and decreased more than 20% over a period of 2 hours. […] This concentration was chosen for the BRET assays. […] However, DTT is not necessary for the BRET reaction to occur efficiently: as it acts as a boost for the Rluc long term emission.
In order to avoid cell damage during the assay procedure and timecourse experiments, an analysis was conducted to determine whether the use of aprotinin perturbs ratiometric measurements. Aprotinin is a protease inhibitor which is often used during cell culture to maintain cell integrity. […]

In data set [13] the target is T2, calcitonin receptor (Cricetulus griseus, UniProt G3GXI2).
T2 sequence (G3GXI2 40-539): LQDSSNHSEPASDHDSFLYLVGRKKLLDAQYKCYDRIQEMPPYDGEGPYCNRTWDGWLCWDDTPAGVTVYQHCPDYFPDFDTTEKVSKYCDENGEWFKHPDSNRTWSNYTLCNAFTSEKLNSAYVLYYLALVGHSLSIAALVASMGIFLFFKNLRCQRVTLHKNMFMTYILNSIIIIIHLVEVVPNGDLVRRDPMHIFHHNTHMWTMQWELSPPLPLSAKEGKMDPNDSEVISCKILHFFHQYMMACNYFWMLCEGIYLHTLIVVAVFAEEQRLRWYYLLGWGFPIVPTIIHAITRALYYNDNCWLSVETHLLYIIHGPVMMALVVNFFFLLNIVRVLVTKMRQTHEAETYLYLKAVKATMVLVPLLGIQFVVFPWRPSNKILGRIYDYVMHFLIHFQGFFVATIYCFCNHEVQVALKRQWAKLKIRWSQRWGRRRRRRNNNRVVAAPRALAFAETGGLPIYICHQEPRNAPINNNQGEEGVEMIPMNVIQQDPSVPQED
Conditions: literature values; read-out: EC50 found in literature for a functional assay; cited from earlier work.

Data set [14] concerns the target T2, calcitonin receptor. Put plainly: cAMP sensor (CBP:CREB) BRET assay in CHO-K1 cells, endogenous calcitonin receptor. The data set is classed as cell-based. Here is the method:
The pCDNA3./Rluc-CBP-NLS and pCDNA3.1 /EYFP-CREB-NLS DNA constructs were transiently transfected into CHO-K1, CHO-CCRS or CHW-β2 cell lines using LipofectAMINE™ (BRL/Gibco-Life technology, Gaethersburg, MD) using equal amount (4 µg) of DNA for each construct in 100mm dishes.
BRET assay using the transfected cells in suspension. At 48 hours post-transfection, the transfected cells were starved for 2 hours in a mixture of PBS + Ca2 + 1 mM/Mg2 + 0.5mM + glucose 1 g/l +aprotinin 2 µg/ml at 37°C before being harvested, washed with a mixture of PBS Ca2+/Mg2+ + glucose + aprotinin 2 µg/ml and counted. […]
BRET assay using transfected cells attached onto the bottom of the microplate. […] At 48 hours post-transfection, the transfected cells were starved as previously mentioned, washed and then analyzed without being harvested.
The assay conditions for both methods (cell in suspension or attached), cells were in PBS Ca2+ Mg2+ + glucose + aprotinin 2 µg/ml in volume of […]. […] Each well was read using both filters for 1 second each.
The CHO-K1 cells were transfected with both constructs. At 48 hours post-transfection, the cells were starved for 2 hours, washed, harvested and counted. […] The microplate was loaded into the BRETCount and light outputs at 470nm and 550nm were determined at several points to determine a timecourse (fig. 10). […]

Read-outs that look alike come from different tables or passages of the source.

Sequence of EYFP•KaiB fusion protein (Aequorea victoria; Synechococcus (cyanobacterium)) (Q79PF5 whole entry, the tested form may be a part): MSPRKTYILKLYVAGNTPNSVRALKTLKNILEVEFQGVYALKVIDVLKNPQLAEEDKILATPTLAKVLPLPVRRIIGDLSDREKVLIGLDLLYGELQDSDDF
Sequence of EYFP•KaiA fusion protein (Aequorea victoria; Synechococcus (cyanobacterium)) (Q79PF6 whole entry, the tested form may be a part): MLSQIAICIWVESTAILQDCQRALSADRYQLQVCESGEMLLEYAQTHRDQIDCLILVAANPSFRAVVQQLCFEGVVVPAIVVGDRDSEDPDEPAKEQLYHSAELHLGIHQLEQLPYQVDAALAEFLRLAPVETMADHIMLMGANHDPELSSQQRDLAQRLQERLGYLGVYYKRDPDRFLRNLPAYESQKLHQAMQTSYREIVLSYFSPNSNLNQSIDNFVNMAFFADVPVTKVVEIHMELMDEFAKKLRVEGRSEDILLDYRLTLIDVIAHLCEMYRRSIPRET

For the compound `CN[C@@H]1C[C@H]2O[C@@](C)([C@@H]1OC)n1c3ccccc3c3c4c(c5c6ccccc6n2c5c31)C(=O)NC4` [staurosporine], in data set [1], the “BRET ratio change (decrease)” value came to 0.1 unit.

As for “RLUC•KaiB fusion protein (from UniProt Q79PF5 1-102)”, the figures for the 530/480nm ratio of luminescence in [2] and in data set [3] were 0.4 and 0.9, respectively. Moreover, the share of the RLUC luminescence for which energy transfer occurs in data set [4] came out at 50%.

As for “caspase-3 (endogenous in HeLa cells) (from UniProt P42574 29-277) (enzyme)”, in data set [5], the BRET ratio change in HeLa cells after 5 hours of apoptosis induction by staurosporine amounted to 0.1 unit.

As for `Oc1ccc(Cc2nc3c(Cc4ccccc4)nc(-c4ccc(O)cc4)cn3c2O)cc1` [native, coelenterazine], on Rluc (HeLa cells), the “Normalized RLU” value was determined as 2030 RLU.

For EGF (ligand), the EC50 of the EGF dose response, BRET ratio of the TKR sensor (Rluc-PTB + EYFP-SH2) in GH4-C1 cells at 45 minutes post induction in [6] was found to be 0.92 nM.

As to “Renilla luciferase (RLUC) (from UniProt P27652 1-311) (enzyme)”, the values for the Ratio 530/480 in data set [7], in data set [8] and in [9] were 0.76, 0.9 and 0.87, respectively.

On to calcitonin (peptide), for which the EC50 of the calcitonin dose response, BRET ratio of the cAMP sensor in attached CHO-K1 cells at 45 minutes in data set [10] amounted to 0.027 nM.

As to `Oc1ccc(-c2cn3c(O)c(Cc4ccccc4)nc3c(CC3CCCC3)n2)cc1` [hcp], on Rluc (HeLa cells), the “Normalized RLU” value was found to be 48144 RLU.

Consider `OC(CS)C(O)CS` (stereo not shown) [DTT], for which the “increase of BRET ratio” value in data set [11] is around 0.1 BRET unit. Besides, the cytotoxicity at 2 h, 10000 µM in [12] (DTT 10mM, over 2 hours, read-out: viability loss) was below 15%. The cytotoxicity at 2 h in data set [12] (DTT 50 and 100mM, over a period of 2 hours, read-out: viability decrease) was above 20%.

On to `Oc1ccc(-c2cn3c(O)c(Cc4ccc(F)cc4)nc3c(Cc3ccccc3)n2)cc1` [f, coelenterazine f], for which the “half-life of the reaction (Rluc luminescence)” value at Rluc (CHO cells) was 11 min; on Rluc (HeLa cells) it was 13 min. Moreover, the “Normalized RLU” value on Rluc (HeLa cells) is recorded as 180126 RLU.

Consider `Oc1ccc(-c2cn3c(O)c(Cc4ccccc4)nc3c(Cc3ccccc3)n2)cc1` [h, coelenterazine h], for which the “Normalized RLU” value on Rluc (HeLa cells) is on record as 173547 RLU.

With calcitonin, the half-maximal effective concentration (EC50) is 0.03 to 0.06 nM with calcitonin receptor [13] and 0.027 nM with calcitonin receptor [14] (CHO-K1 transfected with cAMP sensor, attached cells, data point at 45 minutes after addition of coelenterazine). In the data set with calcitonin receptor [14] (calcitonin 2 nM and 10nM, CHO-K1 cells in suspension, compared to buffer alone), the “BRET ratio over time” value is given as “Ratios increased over time”.
